To fix the notation:
T1: Botulinum neurotoxin serotype B (BoNT/B) holotoxin (Clostridium botulinum, UniProt P10844 2-1291)
T1 sequence: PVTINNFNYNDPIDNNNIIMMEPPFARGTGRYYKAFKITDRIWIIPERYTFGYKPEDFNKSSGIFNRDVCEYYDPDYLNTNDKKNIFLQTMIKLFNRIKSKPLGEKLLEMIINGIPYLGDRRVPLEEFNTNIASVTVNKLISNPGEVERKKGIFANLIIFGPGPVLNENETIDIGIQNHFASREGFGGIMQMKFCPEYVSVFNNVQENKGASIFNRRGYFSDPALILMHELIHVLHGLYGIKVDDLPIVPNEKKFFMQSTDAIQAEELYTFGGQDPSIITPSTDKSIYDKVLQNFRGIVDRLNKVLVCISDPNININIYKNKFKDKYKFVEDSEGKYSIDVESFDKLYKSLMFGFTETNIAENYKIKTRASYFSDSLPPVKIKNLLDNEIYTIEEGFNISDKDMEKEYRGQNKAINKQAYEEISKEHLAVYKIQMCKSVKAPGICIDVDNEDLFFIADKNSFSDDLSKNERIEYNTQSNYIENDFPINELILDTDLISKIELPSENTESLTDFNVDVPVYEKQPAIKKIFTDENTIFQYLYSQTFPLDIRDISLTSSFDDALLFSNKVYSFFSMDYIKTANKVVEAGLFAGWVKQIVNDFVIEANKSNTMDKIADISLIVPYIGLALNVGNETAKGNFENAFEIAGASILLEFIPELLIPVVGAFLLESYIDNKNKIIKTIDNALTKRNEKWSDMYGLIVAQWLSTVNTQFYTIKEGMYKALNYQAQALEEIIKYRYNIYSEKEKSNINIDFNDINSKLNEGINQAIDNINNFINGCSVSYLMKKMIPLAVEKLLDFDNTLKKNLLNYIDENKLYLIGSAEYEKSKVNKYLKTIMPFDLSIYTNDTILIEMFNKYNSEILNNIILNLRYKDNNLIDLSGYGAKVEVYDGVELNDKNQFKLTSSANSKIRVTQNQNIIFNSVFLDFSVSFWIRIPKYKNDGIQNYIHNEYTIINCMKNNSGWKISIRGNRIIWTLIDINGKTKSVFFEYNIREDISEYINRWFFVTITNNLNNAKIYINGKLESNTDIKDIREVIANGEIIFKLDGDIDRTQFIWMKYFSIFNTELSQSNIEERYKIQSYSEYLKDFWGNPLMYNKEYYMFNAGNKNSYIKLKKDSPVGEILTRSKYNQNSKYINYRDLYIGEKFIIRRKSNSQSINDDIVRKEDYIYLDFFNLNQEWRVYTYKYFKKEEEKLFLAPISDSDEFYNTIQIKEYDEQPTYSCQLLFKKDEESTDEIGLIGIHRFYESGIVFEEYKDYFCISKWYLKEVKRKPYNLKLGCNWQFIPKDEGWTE

B1: A9/D4 heterodimer VNA (designed binder)
chain: QVQLVETGGGLAQAGDSLRLSCVEPGRTLDMYAMGWIRQAPGEEREFVASISGVGGSPRYADSVKGRFTISKDNTKSTIWLQMNSLKPEDTAVYYCAAGGDIYYGGSPQWRGQGTRVTVSSEPKTPKPQGGGGSGGGGSGGGGSQVQLVESGGGLVQAGGSLRLSCAASGRINGDYAMGWFRQAPGEEREFVAVNSWIGGSTYYTDSVKGRFTLSRDNAKNTLSLQMNSLKPEDTAVYYCAAGHYTDFPTYFKEYDYWGQGTQVTVSSEPKTPKPQ
B2: Stx1-D4 (VHH)
VHH: QVQLVESGGGLVQAGGSLRLSCAASGRINGDYAMGWFRQAPGEEREFVAVNSWIGGSTYYTDSVKGRFTLSRDNAKNTLSLQMNSLKPEDTAVYYCAAGHYTDFPTYFKEYDYWGQGTQVTVSS
B3: A9/A5/G1 heterotrimer VNA (designed binder)
chain: QVQLVETGGGLAQAGDSLRLSCVEPGRTLDMYAMGWIRQAPGEEREFVASISGVGGSPRYADSVKGRFTISKDNTKSTIWLQMNSLKPEDTAVYYCAAGGDIYYGGSPQWRGQGTRVTVSSEPKTPKPQGGGGSGGGGSGGGGSQVQLVESGGGLVQPGGSLRLSCAALEFTLEDYAIAWFRQAPGKEREGVSCISKSGVTKYTDSVKGRFTVARDNAKSTVILQMNNLRPEDTAVYNCAAVRPVFVDSVCTLATRYTYWGEGTQVTVSSAHHSEDPGGGGSGGGGSGGGGSQVQLVESGGGLVQPGESLRLSCVASASTFSTSLMGWVRQAPGKGLESVAEVRTTGGTFYAKSVAGRFTISRDNAKNTLYLQMNSLKAEDTGVYYCTAGAGPIATRYRGQGTQVTVSSAHHSEDP
B4: A5/D10 heterodimer VNA (designed binder)
chain: QVQLVESGGGLVQPGGSLRLSCAALEFTLEDYAIAWFRQAPGKEREGVSCISKSGVTKYTDSVKGRFTVARDNAKSTVILQMNNLRPEDTAVYNCAAVRPVFVDSVCTLATRYTYWGEGTQVTVSSAHHSEDPGGGGSGGGGSGGGGSQVQLVETGGLVQAGGSLRLSCAASGVPFSDYTMAWFRQAPGKEREVVARITWRGGGPYYGNSGNGRFAISRDIAKSMVYLHMDSLKPEDTAVYYCAASRLRPALASMASDYDYWGQGTQVSVSSEPKTPKPQ
B5: Stx-A4 (VHH)
VHH: QVQLVESGGGLVQPGGSLRLSCAASGFTLGSYHIGWFRHPPGKEREGTSCLSSRGDYTKYAEAVKGRFTISRDNTKSTVYLQMNNLKPEDTGIYVCAAIRPVLSDSHCTLAARYNYWGQGTQVTVSS
B6: Stx1-A9 (VHH)
VHH: QVQLVETGGGLAQAGDSLRLSCVEPGRTLDMYAMGWIRQAPGEEREFVASISGVGGSPRYADSVKGRFTISKDNTKSTIWLQMNSLKPEDTAVYYCAAGGDIYYGGSPQWRGQGTRVTVSS
B7: Stx-A5 (VHH)
VHH: QVQLVESGGGLVQPGGSLRLSCAALEFTLEDYAIAWFRQAPGKEREGVSCISKSGVTKYTDSVKGRFTVARDNAKSTVILQMNNLRPEDTAVYNCAAVRPVFVDSVCTLATRYTYWGEGTQVTVSS
B8: G1/D10 heterodimer VNA (designed binder)
chain: QVQLVESGGGLVQPGESLRLSCVASASTFSTSLMGWVRQAPGKGLESVAEVRTTGGTFYAKSVAGRFTISRDNAKNTLYLQMNSLKAEDTGVYYCTAGAGPIATRYRGQGTQVTVSSAHHSEDPGGGGSGGGGSGGGGSQVQLVETGGLVQAGGSLRLSCAASGVPFSDYTMAWFRQAPGKEREVVARITWRGGGPYYGNSGNGRFAISRDIAKSMVYLHMDSLKPEDTAVYYCAASRLRPALASMASDYDYWGQGTQVSVSSEPKTPKPQ
B9: Stx2-G9 (VHH)
VHH: QVQLVESGGGLVQPGGSLTLSCTASGFTLNSYKIGWFRQAPGKEREGVSCINSGGNLRSVEGRFTISRDNTKNTVSLHMDSLKPEDTGVYHCAAAPALNVFSPCVLAPRYDYWGQGTQVTVSS
B10: Stx2-G1 (VHH)
VHH: QVQLVESGGGLVQPGESLRLSCVASASTFSTSLMGWVRQAPGKGLESVAEVRTTGGTFYAKSVAGRFTISRDNAKNTLYLQMNSLKAEDTGVYYCTAGAGPIATRYRGQGTQVTVSS
B11: Stx2-H6 (VHH)
VHH: QVQLVETGGGLVQPGGSLRLSCAASGFSLDPYVIGWFRQAPGKEREGVSCITSRAASRTSVDSVNERFTISRDNAKNTVDLHINNLKPEDSGVYYCAAVPPAKLPLFSLCRSLPAKYDYWGQGTQVTVSS
B12: Stx2-D10 (VHH)
VHH: QVQLVETGGLVQAGGSLRLSCAASGVPFSDYTMAWFRQAPGKEREVVARITWRGGGPYYGNSGNGRFAISRDIAKSMVYLHMDSLKPEDTAVYYCAASRLRPALASMASDYDYWGQGTQVSVSS
B13: Stx2-D2 (VHH)
VHH: QVQLVESGGGLVQPGGSLGLSCAMSGTTQDYSAVGWFRQAPGKEREGVSCISRSGRRTNYADSVRGRFTISRDNAKDTVYLQMNSLKPDDTAVYYCAARKTDMSDPYYVGCNGMDYWGKGTLVTVSS
B14: Stx2-A6 (VHH)
VHH: QVQLVESGGGLVQPGGSLKLSCAASGFTLADYVTVWFRQAPGKSREGVSCISSSRGTPNYADSVKGRATVSRNNANNTVYLQMNGLKPDDTAIYYCAAIRPARLRAYRECLSSQAEYDYWGQGTQVTVSS
B15: ciB-B5 (VHH)
VHH: QVQLVESGGGLVQPGGSLRLSCAASGQSLDNYIIGWFRQAPGKEREGVSCIDRTGTVTHYADSVKGRFTISTDNVKNTVYLEMNDLKPEDTATYFCAAERRWGVVSVCVISDYYFDSWGQGTQVTVSS
B16: ciB-A11 (VHH)
VHH: QVQLVEGGGGLVQPGGALRLSCAASVFGMDYYYIGWVRQAPGKEREGVSCISNIGRTHYADSVKGRFTISRDNAKNTVYLQMNSLKPEDTAVYYCAAAPLVGNYCPASYEYESWGQGTQVTVSS
B17: ciB-A11/B5 heterodimer (designed binder)
chain: QVQLVEGGGGLVQPGGALRLSCAASVFGMDYYYIGWVRQAPGKEREGVSCISNIGRTHYADSVKGRFTISRDNAKNTVYLQMNSLKPEDTAVYYCAAAPLVGNYCPASYEYESWGQGTQVTVSSAHHSEDPSGGGGSGGGGSGGGGSQVQLVESGGGLVQPGGSLRLSCAASGQSLDNYIIGWFRQAPGKEREGVSCIDRTGTVTHYADSVKGRFTISTDNVKNTVYLEMNDLKPEDTATYFCAAERRWGVVSVCVISDYYFDSWGQGTQVTVSSAHHSEDPS

The target of one experiment is Shiga toxin 1 (Stx1) (Escherichia coli O157:H7) (UniProt P08026).
Chain of Shiga toxin 1 (Stx1) (Escherichia coli O157:H7) (P08026 23-315): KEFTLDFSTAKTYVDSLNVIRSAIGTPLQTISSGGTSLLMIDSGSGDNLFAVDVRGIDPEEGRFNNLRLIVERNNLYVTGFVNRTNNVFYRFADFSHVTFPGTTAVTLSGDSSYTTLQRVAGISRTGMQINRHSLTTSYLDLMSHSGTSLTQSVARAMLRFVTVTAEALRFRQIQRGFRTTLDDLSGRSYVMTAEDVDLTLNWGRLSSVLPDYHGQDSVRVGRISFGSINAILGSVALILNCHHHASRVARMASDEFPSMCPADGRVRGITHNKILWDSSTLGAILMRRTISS
Experiment: not given
In turn, B1 yielded an EC50 (read off the curve) of 0.6 nM. That is a sub-nanomolar value.
As to B2, the half-maximal effective concentration (EC50 (read off the curve)) was 0.5 nM.

The target is the same in another experiment.
Experiment: not given
The source holds these as a separate data set.
The molecule B3 had a 50% effective concentration (EC50 (read off the curve)) of 0.5 nM.

For a further experiment the target is unchanged. The experiment can be described thus: SPR, Stx1 immobilised. For orientation: SPR reads the build-up and loss of mass on a sensor chip optically.
For B3, the dissociation constant (Kd) amounted to 0.46 nM.
Same read-out and setting: the same measure for B1: 1.2 nM; for B4: 9.2 nM.
With B5, the Kd stood at 7.2 nM.
Regarding B2, the equilibrium dissociation constant (Kd) came out at 0.128 nM.
The molecule B6 came in with a dissociation constant (Kd) of 7.6 nM.
The molecule B7 came in with a Kd of 12.5 nM.

A further experiment shares this target. Nature of the experiment: cell-based or functional assay.
Molecule B3 had an IC50, Vero cell neutralization assay of 0.05 nM.
Regarding B1, the IC50, Vero cell neutralization assay came out at 1 nM.
As for B8, the IC50, Vero cell neutralization assay was > 100 nM.
Same read-out and setting: under B4 stands 50 nM; under B9, > 1000 nM; under B5, > 330 nM.
As for B2, the IC50, Vero cell neutralization assay was > 1000 nM.
Take B10: the IC50, Vero cell neutralization assay is > 1000 nM.
For the molecule B11, the IC50, Vero cell neutralization assay is > 1000 nM.
Turning to B6, the IC50, Vero cell neutralization assay turned out to be 10 nM.
Consider B12, for which the IC50, Vero cell neutralization assay was > 1000 nM.
B7 registered an IC50, Vero cell neutralization assay of 100 nM.

For another experiment the target is unchanged. Nature of the experiment: dilution ELISA, HRP-anti-E-tag. Background: ELISA stands for enzyme-linked immunosorbent assay.
Molecule B3 came in with an EC50 of 0.5 nM. This counts as sub-nanomolar.
B1 had an EC50 of 0.6 nM.
For B8, the concentration for a half-maximal effect (EC50) is > 1000 nM.
B4: the EC50 is 30 nM. In other words, the double-digit nanomolar range.
For the molecule B9, the concentration giving a half-maximal response (EC50) was > 1000 nM.
Turning to B5, the EC50 stood at 30 nM. This counts as double-digit nanomolar.
For the molecule B2, the concentration giving a half-maximal response (EC50) was determined as 0.5 nM. Against the preceding molecule, the EC50 is about 60-fold lower.
Regarding B10, the concentration for a half-maximal effect (EC50) was > 1000 nM.
Regarding B11, the concentration for a half-maximal effect (EC50) was > 1000 nM.
As to B13, the EC50 is > 1000 nM.
Molecule B6 came in with an EC50 of 10 nM. In other words, the double-digit nanomolar range.
Consider B12, for which the EC50 is > 1000 nM.
Molecule B7 gave an EC50 of 15 nM.
On to B14, for which the EC50 is > 1000 nM.

Another experiment has as its target T1, Botulinum neurotoxin serotype B …. Nature of the experiment: SPR; chip ligand for BoNT/B not described.
With B15, the Kd was determined as 0.97 nM.
Turning to B16, the affinity, expressed as Kd, was 0.84 nM. This Kd and that of the molecule before are within 1.5-fold of each other.
As for B17, the affinity, expressed as Kd, was 5.3 nM.

By EC50 (read off the curve) is commonly meant the concentration needed to bring the measured effect to its halfway point. Higher therefore signals a less potent agent. For orientation: Kd means the free concentration of one partner at which half of the binding sites on the other are occupied at equilibrium, for simple one-to-one binding. Lower therefore signals a tighter complex. What is called EC50 is the concentration that produces a half-maximal response. Read a high EC50 as weaker potency.

Source of the values: patent US20140294826A1 (TUFTS UNIVERSITY, published 2014).
